Source: IntAct's records for PubMed 16272220

Legend:
[1] = target: T1, trx2_yeast TRX2 (UniProt P22803)
T1 sequence: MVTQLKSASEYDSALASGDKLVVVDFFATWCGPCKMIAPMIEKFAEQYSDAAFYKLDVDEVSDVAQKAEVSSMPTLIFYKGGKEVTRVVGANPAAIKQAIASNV

[2] = target: T2, trx1_yeast TRX1 (UniProt P22217)
T2 sequence: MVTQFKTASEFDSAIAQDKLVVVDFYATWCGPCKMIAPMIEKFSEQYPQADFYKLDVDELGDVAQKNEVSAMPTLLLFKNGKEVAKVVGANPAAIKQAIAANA

## Phosphoadenosine phosphosulfate reductase (Saccharomyces cerevisiae) (from UniProt P18408) C245S
[1]
  effect of a mutation on the interaction: decreasing interaction
[2]
  effect of a mutation on the interaction: decreasing interaction
